According to patent publication US20230174672A1 (VEGA THERAPEUTICS, published 2023):

T1: human Protein S (human, UniProt P07225 42-676)
T1 construct: also called ProS; ProS1
T1 sequence: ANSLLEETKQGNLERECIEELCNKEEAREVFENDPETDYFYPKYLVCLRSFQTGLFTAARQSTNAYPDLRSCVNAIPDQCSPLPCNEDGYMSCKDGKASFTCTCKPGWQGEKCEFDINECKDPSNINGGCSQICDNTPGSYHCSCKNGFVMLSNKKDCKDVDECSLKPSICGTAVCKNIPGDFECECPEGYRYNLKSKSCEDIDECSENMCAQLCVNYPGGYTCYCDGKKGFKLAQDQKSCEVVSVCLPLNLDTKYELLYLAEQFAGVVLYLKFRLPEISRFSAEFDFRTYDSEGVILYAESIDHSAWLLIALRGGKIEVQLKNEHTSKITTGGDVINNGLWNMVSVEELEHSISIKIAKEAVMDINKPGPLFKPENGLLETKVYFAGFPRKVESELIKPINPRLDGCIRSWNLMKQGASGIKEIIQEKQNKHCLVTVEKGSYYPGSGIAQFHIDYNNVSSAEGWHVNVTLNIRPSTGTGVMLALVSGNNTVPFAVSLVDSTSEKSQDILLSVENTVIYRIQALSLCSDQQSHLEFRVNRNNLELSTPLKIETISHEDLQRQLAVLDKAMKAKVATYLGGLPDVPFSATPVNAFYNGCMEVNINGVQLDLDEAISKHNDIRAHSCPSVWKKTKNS

T2: recombinant heavy chain Protein S (amino acids 42-296) (human, UniProt P07225 42-296)
T2 construct: Expressed and purified from HEK293 cells; No tags are stated; also called heavy chain of Protein S; Protein S heavy chain
T2 sequence: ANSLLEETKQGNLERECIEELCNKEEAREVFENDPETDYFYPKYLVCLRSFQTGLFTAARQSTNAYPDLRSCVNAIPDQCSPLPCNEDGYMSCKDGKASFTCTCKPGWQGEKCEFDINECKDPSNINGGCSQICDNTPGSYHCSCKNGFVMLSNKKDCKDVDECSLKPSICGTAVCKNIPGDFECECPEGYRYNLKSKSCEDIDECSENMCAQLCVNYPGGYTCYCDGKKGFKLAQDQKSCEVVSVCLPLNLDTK

T3: Protein S-C4BP complex (human, UniProt P04003 49-597; P20851 18-252)
T3 construct: Bought C4BP preparation that contains Protein S precomplexed to human C4BP; also called ProS-C4BP Complex; C4BP-Protein S complex
T3 sequence 1: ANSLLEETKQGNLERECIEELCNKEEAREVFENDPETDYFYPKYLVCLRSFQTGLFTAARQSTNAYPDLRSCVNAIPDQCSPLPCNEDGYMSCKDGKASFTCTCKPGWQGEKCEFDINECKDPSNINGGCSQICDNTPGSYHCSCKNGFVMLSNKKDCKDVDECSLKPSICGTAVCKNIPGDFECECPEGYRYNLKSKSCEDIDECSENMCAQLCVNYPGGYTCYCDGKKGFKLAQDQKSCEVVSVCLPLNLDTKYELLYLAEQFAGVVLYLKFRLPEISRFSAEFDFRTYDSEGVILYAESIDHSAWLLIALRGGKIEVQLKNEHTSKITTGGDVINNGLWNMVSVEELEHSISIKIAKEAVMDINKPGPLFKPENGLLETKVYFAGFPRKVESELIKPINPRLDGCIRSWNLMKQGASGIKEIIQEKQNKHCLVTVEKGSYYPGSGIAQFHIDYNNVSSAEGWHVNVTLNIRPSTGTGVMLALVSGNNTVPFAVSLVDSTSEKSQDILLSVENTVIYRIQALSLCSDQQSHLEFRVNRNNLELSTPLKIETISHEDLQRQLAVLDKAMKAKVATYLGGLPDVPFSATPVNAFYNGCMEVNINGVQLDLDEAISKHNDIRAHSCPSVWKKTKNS
T3 sequence 2: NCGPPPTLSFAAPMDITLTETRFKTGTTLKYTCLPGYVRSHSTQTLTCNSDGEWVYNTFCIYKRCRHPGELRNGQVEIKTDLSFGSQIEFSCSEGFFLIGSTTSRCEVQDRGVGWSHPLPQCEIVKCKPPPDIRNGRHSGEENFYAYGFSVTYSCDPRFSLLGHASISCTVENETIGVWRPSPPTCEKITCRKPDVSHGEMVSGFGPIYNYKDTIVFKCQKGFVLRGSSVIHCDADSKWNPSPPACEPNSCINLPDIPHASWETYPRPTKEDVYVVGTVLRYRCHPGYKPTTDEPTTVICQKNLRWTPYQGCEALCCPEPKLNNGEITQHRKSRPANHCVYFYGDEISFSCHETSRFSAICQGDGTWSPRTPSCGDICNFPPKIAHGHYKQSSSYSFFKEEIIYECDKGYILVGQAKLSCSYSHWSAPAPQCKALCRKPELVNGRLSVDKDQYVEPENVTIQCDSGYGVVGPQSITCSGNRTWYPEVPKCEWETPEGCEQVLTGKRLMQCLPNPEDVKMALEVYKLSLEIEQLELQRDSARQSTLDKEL
T3 sequence 3: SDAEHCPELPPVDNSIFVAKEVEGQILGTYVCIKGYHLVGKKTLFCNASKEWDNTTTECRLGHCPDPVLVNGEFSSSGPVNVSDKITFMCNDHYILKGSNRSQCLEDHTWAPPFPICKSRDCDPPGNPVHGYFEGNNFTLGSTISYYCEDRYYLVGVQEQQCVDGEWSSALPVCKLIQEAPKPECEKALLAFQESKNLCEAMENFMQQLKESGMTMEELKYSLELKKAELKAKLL

B1: Antibody 5 (antibody, V domains shown)
VH: QVQLVQSGAEVKKPGASVKVSCKASGYTFTSYDINWVRQATGQGLEWMGWVNPNSDNIGYAQKFQGRVTMTRNTSISTAYMELSSLRSEDSAVYYCVRGAAAAWDAFAIWGQGTMVTVSS
VL: EIVMTQSPATLSVSPGERATLSCRASQSVGSNLAWYQQKPGQAPRLLIYGASTRATGGPARFSGSGSGTEFTLTISSLQSEDFAVYYCQQYNNWPLTFGGGTKVEIK
notes: also called Protein S Antibody with Human Fc; Combination 8
B2: Antibody 22 (antibody, V domains shown)
VH: EVQLLESGGGLVQPGGSLRLSCAASRFSFSSYAMSWVRQAPGKGLEWVSAISDSGSNTYYADSVKGLFTISRDNSKNTLYLQMNSLRAEDTAVYYCAKNYESGGYYTFFDYWGQGTLVTVST
VL: EIVMTQSPATLSVFPGERATLSCRASQSVRSNLAWHQQKLGQAPRLLLYGASTRATGIPARFSGSGSGTEFTLAISSLQSEDFAVYYCQQYNSWPFTFGGGTKVGIK
notes: Human variable region with a rat Fc domain; also called Protein S Antibody with Rat Fc; parental rat antibody of Antibody 10
B3: Antibody 10 (antibody, human IgG4, V domains shown)
VH: EVQLLESGGGLVQPGGSLRLSCAASRFSFSSYAMSWVRQAPGKGLEWVSAISDSGSNTYYADSVKGLFTISRDNSKNTLYLQMNSLRAEDTAVYYCAKNYESGGYYTFFDYWGQGTLVTVST
VL: EIVMTQSPATLSVFPGERATLSCRASQSVRSNLAWHQQKLGQAPRLLLYGASTRATGIPARFSGSGSGTEFTLAISSLQSEDFAVYYCQQYNSWPFTFGGGTKVGIK
notes: also called Protein S Antibody with Human Fc; Combination 9
B4: Antibody 17 (antibody, V domains shown)
VH: QVQLVQSGAEVKKPGASVKVSCKASGYTFTSYDINWVRQATGQGLEWMGWVNPNSDNIGYAQKFQGRVTMTRNTSISTAYMELSSLRSEDSAVYYCVRGAAAAWDAFAIWGQGTMVTVSS
VL: EIVMTQSPATLSVSPGERATLSCRASQSVGSNLAWYQQKPGQAPRLLIYGASTRATGGPARFSGSGSGTEFTLTISSLQSEDFAVYYCQQYNNWPLTFGGGTKVEIK
notes: Human variable region with a rat Fc domain; also called Protein S Antibody with Rat Fc; parental rat antibody of Antibody 5
B5: Antibody 26 (antibody, human IgG4, V domains shown)
VH: EVQVVESGGGLVQPGGSLRLSCAASGFTLNSFWMSWVRQAPGKGLEWVANIKEDGSEKYYVDSVKGRFTISRDNAKNSLYLQMNGLRAEDTALYYCARETDILTAYYSDYYSYYGMDVWGQGTTVTVSA
VL: DIQMTQSPSSLSASVRDRVTINCRASQSIRSYLNWYQQKPGKAPKLLIYAASSLQGGVPSRFSGSGSGTDFTLTISSLQPEDFATYYCQQSYSTPRTFGQGTKVEIK
notes: also called Protein S Antibody with Human Fc; Combination 16
B6: Antibody 32 (antibody, V domains shown)
VH: EVQVVESGGGLVQPGGSLRLSCAASGFTLNSFWMSWVRQAPGKGLEWVANIKEDGSEKYYVDSVKGRFTISRDNAKNSLYLQMNGLRAEDTALYYCARETDILTAYYSDYYSYYGMDVWGQGTTVTVSA
VL: DIQMTQSPSSLSASVRDRVTINCRASQSIRSYLNWYQQKPGKAPKLLIYAASSLQGGVPSRFSGSGSGTDFTLTISSLQPEDFATYYCQQSYSTPRTFGQGTKVEIK
notes: Human variable region with a rat Fc domain; also called Protein S Antibody with Rat Fc; parental rat antibody of Antibody 26

What was measured:
[1] = target: T1, human Protein S; assay: SPR, Biacore X100; antibody captured on anti-human IgG (Fc), purified Protein S 2-128 nM as analyte, HBS-EP + 5 mM CaCl2, 1:1 model
Protocol: Binding interaction analysis was obtained by Surface Plasmon Resonance in a Biacore X100 instrument. The human anti-IgG (Fc) antibody was immobilized to the carboxymethylated dextran membrane on the sensor chip surface (CM5) via the free amine method for a contact time of 420 seconds. Human anti-IgG antibody at 25 µg/mL in 0.15 M NaCl was immobilized to 9,785 RU in 10 mM sodium acetate pH 5.0. Each tested monoclonal antibody was captured at a fixed concentration (0.25 µg/mL) with immobilized human anti-IgG antibody.
The following experimental conditions were used: purified Protein S was injected at concentrations: 2-128 nM, 1:2-fold dilution. Dilution and running buffer were as follows: Hbs-EP + 5 mM CaCl₂. Regeneration was obtained by 3 M MgCl₂. Binding constants (ka, kd, and KD) were determined using the Biacore X100 evaluation software, assuming a 1:1 interaction of Protein S and the tested monoclonal antibody under investigation.

[2] = target: T1, human Protein S; assay: BLI, Octet; antibody on anti-human Fc capture probes, Protein S 7.81-500 nM, 4 mM calcium chloride
Protocol: (§1) Binding affinities of the Protein S antibodies provided herein were also further characterized using the Octet System (Sartorius). The binding of each antibody to both human and cynomolgus monkey (“cyno”) Protein S was determined. The human Fc antibodies were immobilized onto anti-human Fc capture probes by placing the probes into 10 µg/ml antibody solution in 10 mg/ml bovine serum albumin, 20 mM Tris pH 7.0, 150 mM NaCl, and 4 mM calcium chloride. […] Next, the probes were placed into buffer and the dissociation rates were measured.

[3] = target: T4, cynomolgus monkey Protein S (cynomolgus monkey); assay: as above
T4 construct: also called cyno Protein S
Protocol: as §1

[4] = target: T2, recombinant heavy chain Protein S …; assay: ELISA, plate coated with recombinant Protein S heavy chain (aa 42-296), 1 µg/ml antibody, 1 mM calcium chloride
Protocol: (§2) Binding to the heavy chain of Protein S was determined using an ELISA based method. Briefly, high binding ELISA plates were coated with recombinant heavy chain Protein S expressed and purified from HEK293 cells. The “heavy chain” of Protein S represents a fragment of Protein S spanning amino acids 42-296. The coated plate was blocked with 1% casein solution. Then, buffer containing 1 µg/ml of antibody to be tested was applied to the well with buffer containing 1 mM calcium chloride.

[5] = target: T1, human Protein S; assay: ELISA, plate coated with human Protein S, 1 µg/ml antibody, 1 mM EDTA
Protocol: (§3) Calcium dependence of binding was determined using an ELISA based method. Briefly, high binding ELISA plates were coated with human Protein S. Then, buffer containing 1 µg/ml of antibody was applied to the well with either buffer containing 1 mM EDTA or 1 mM calcium chloride. If the level of binding of Protein S was reduced ([…] of the absorbance observed in the presence of calcium) when EDTA was added, it was concluded that the binding was calcium-dependent.

[6] = target: T1, human Protein S; assay: ELISA, plate coated with human Protein S, 1 µg/ml antibody, 1 mM calcium chloride
Protocol: as §3

[7] = target: T2, recombinant heavy chain Protein S …; assay: ELISA on plate-coated recombinant Protein S heavy chain (aa 42-296), 1 mM calcium chloride
Protocol: as §2

[8] = target: T3, Protein S-C4BP complex; assay: Octet BLI, antibody captured on anti-human Fc probes; a dash indicates that the binding did not occur
Protocol: The Octet assay was used to determine the capability of the Protein S antibodies provided herein to bind to Protein S either alone, or when complexed to C4BP.
Using the Octet System (Sartorius), the binding of each antibody to both Protein S and Protein S in complex with C4BP was determined. It had previously been determined that the C4BP preparation from Complement Technologies contains Protein S precomplexed to human C4BP. […] Then the bound antibodies were placed into solutions containing either 75 µg/ml Protein S or 100 µg/ml C4BP (C4BP-Protein S complex).

Row | Binder | Kd [1] | koff [1] | kon [1] | Kd [2] | koff [2] | kon [2] | Kd [3] | koff [3] | kon [3] | Binding to heavy chain (OD) [4] | Binding to Protein S in EDTA (OD) [5] | Binding to Protein S in CaCl2 (OD) [6] | binding result [7] | binding result [8]
1 | B1 | 28 nM | 0.00227 s⁻¹ | 81200 M⁻¹ s⁻¹ | 7.8 nM | 0.000493 s⁻¹ | 63300 M⁻¹ s⁻¹ | 4.19 nM | 0.000283 s⁻¹ | 67500 M⁻¹ s⁻¹ | – | – | – | – | –
2 | B2 | – | – | – | – | – | – | – | – | – | 0.06 OD | 0.07 OD | 0.2 OD | no binding | –
3 | B3 | 31 nM | 0.00514 s⁻¹ | 167000 M⁻¹ s⁻¹ | 16.8 nM | 0.00213 s⁻¹ | 127000 M⁻¹ s⁻¹ | 12.3 nM | 0.00132 s⁻¹ | 107000 M⁻¹ s⁻¹ | – | – | – | – | no binding (tested: 100 µg/ml C4BP (C4BP-Protein S complex))
4 | B4 | – | – | – | – | – | – | – | – | – | 0.07 OD | 0.39 OD | 0.54 OD | no binding | –
5 | B5 | – | – | – | 0.466 nM | 4.58e-05 s⁻¹ | 98500 M⁻¹ s⁻¹ | 0.349 nM | 3.15e-05 s⁻¹ | 90300 M⁻¹ s⁻¹ | – | – | – | – | no binding (tested: 100 µg/ml C4BP (C4BP-Protein S complex))
6 | B6 | – | – | – | – | – | – | – | – | – | 0.1 OD | 0.33 OD | 0.82 OD | no binding | –
